Assay results taken from PMC2731163, “HoxA-11 and FOXO1A Cooperate to Regulate Decidual Prolactin Expression: Towards Inferring the Core Transcriptional Regulators of Decidual Genes” (PLoS ONE, 2009).

Molecular target: N-terminal Flag tagged human FOXO1A (human, UniProt Q12778 1-655)
Assay: cell-based or functional assay

Chain of N-terminal Flag tagged human FOXO1A (Q12778 whole entry): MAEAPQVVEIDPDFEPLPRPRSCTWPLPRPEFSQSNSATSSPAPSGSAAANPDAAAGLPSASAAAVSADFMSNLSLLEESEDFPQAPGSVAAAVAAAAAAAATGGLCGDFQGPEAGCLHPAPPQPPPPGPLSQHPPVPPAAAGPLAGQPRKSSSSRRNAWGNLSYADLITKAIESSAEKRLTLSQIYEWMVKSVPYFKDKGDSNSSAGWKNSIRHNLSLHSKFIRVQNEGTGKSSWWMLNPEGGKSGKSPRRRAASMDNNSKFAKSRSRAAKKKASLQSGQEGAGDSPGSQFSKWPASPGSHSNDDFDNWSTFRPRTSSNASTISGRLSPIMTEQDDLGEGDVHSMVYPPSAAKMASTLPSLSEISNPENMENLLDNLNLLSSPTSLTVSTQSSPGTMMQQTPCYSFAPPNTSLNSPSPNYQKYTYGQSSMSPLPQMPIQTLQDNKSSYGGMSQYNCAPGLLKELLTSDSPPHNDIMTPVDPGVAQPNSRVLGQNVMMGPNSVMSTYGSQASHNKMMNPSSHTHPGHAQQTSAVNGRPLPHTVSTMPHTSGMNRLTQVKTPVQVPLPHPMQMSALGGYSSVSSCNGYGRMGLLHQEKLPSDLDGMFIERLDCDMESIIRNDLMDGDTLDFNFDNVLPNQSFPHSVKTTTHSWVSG

luciferase expression from the dPRL-332/luc3 decidual PRL enhancer reporter in HeLa cells cotransfected with HoxA-11 and FOXO1A, fold change relative to empty expression vector: > 3 fold
B1: HoxA11-V5/His fusion protein (natural protein)
chain: not shown
